In the supplement of paper PMC9732359:
± gives the uncertainty stated by the source.

Assay: protein stability index of a GFP-peptide fusion (yeast GPS) (PSI 1-4); higher = more stable; sorted into four equal gates, so the index is relative within each strain
How it was run: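 The protein stability index of a peptide was calculated by multiplying its read frequency in each gate by that gate's number and adding the products. The peptides were tiled 17-residue stretches of yeast proteins, fused downstream of GFP on a Cherry-expressing plasmid and carried in yeast as a pooled library. Mid-log cultures in leucine-free medium were sorted into four equal gates by GFP/Cherry ratio, and each gate's plasmids were PCR-amplified and Illumina-sequenced.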

## MMTGAEQDPYSNASQMG [RPB3]
doa10∆
  protein stability index: 2.68 ± 0.14
pdr5∆
  protein stability index: 2.44 ± 0.13
san1∆
  protein stability index: 2.21 ± 0.2
ubr1∆
  protein stability index: 2.92 ± 0.1

## KVSPEELPLVITMPATN [ARP7]
doa10∆
  protein stability index: 2.64 ± 0.053
pdr5∆
  protein stability index: 2.68 ± 0.065
san1∆
  protein stability index: 2.57 ± 0.053
ubr1∆
  protein stability index: 2.57 ± 0.042

## GVPNYLVQLEPHLFVNG [SSN2]
doa10∆
  protein stability index: 1.96 ± 0.069
pdr5∆
  protein stability index: 1.97 ± 0.063
san1∆
  protein stability index: 1.94 ± 0.084
ubr1∆
  protein stability index: 1.96 ± 0.12

## TLDREYITLKATFLKDD [QCR2]
doa10∆
  protein stability index: 1.38 ± 0.065
pdr5∆
  protein stability index: 1.44 ± 0.045
san1∆
  protein stability index: 1.51 ± 0.1
ubr1∆
  protein stability index: 1.5 ± 0.048

## VTEDGSIVTVVSSAKFS [RPL22B]
doa10∆
  protein stability index: 2.79 ± 0.1
pdr5∆
  protein stability index: 3 ± 0.12
san1∆
  protein stability index: 2.99 ± 0.1
ubr1∆
  protein stability index: 2.87 ± 0.087

## VSIRQNQYKLVFYQVTP [RPL22B]
doa10∆
  protein stability index: 1.95 ± 0.087
pdr5∆
  protein stability index: 1.69 ± 0.051
san1∆
  protein stability index: 2.15 ± 0.06
ubr1∆
  protein stability index: 1.88 ± 0.064

## LKHTDYWYEQDSAKEWP [RPB3]
doa10∆
  protein stability index: 3.18 ± 0.15
pdr5∆
  protein stability index: 3.31 ± 0.13
san1∆
  protein stability index: 2.36 ± 0.21

## EEWLNTKDPDEQQLFEI [CSN9]
doa10∆
  protein stability index: 3.06 ± 0.11
pdr5∆
  protein stability index: 3.16 ± 0.12
san1∆
  protein stability index: 3.24 ± 0.051
ubr1∆
  protein stability index: 3.15 ± 0.075

## MKLTDLLSLINSTHLLP [SNF12]
doa10∆
  protein stability index: 2.56 ± 0.052
pdr5∆
  protein stability index: 2.57 ± 0.04
san1∆
  protein stability index: 2.94 ± 0.05
ubr1∆
  protein stability index: 2.58 ± 0.036

## NQNSDMKKKLELISYRN [SRB8]
doa10∆
  protein stability index: 2.91 ± 0.048
pdr5∆
  protein stability index: 3.04 ± 0.059
san1∆
  protein stability index: 2.93 ± 0.051
ubr1∆
  protein stability index: 3.08 ± 0.04

## KEPKKLLPNSKNVENTK [DSN1]
doa10∆
  protein stability index: 3.12 ± 0.17
pdr5∆
  protein stability index: 2.74 ± 0.15
san1∆
  protein stability index: 2.59 ± 0.14
ubr1∆
  protein stability index: 3.21 ± 0.083

## NVISSKDWELEARFWHL [YDL116W/NUP84]
doa10∆
  protein stability index: 3.46 ± 0.096
pdr5∆
  protein stability index: 3.32 ± 0.062
san1∆
  protein stability index: 3.43 ± 0.066
ubr1∆
  protein stability index: 3.25 ± 0.068

## FQNSYKPALKVSKEGLY [YMR129W/POM152]
doa10∆
  protein stability index: 2.42 ± 0.22
pdr5∆
  protein stability index: 3.12 ± 0.11
san1∆
  protein stability index: 3.02 ± 0.082
ubr1∆
  protein stability index: 3.07 ± 0.1

## TDRQKKLLGVDMQSSVD [YLR018C/POM34]
doa10∆
  protein stability index: 3.2 ± 0.057
pdr5∆
  protein stability index: 3.08 ± 0.055
san1∆
  protein stability index: 3.19 ± 0.043
ubr1∆
  protein stability index: 3.15 ± 0.044

## QNNSKHTEDTVNESRNS [SRB5]
pdr5∆
  protein stability index: 2.73 ± 0.1
san1∆
  protein stability index: 2.95 ± 0.09
ubr1∆
  protein stability index: 2.98 ± 0.11

## DAEVAQFLEQGLSIHPT [SRP68]
doa10∆
  protein stability index: 2.79 ± 0.057
pdr5∆
  protein stability index: 3 ± 0.063
san1∆
  protein stability index: 2.76 ± 0.073
ubr1∆
  protein stability index: 3.1 ± 0.042

## GKVVKNVLLLDSNGDFN [RRP46]
doa10∆
  protein stability index: 3.35 ± 0.068
pdr5∆
  protein stability index: 3.22 ± 0.058
san1∆
  protein stability index: 3.29 ± 0.063
ubr1∆
  protein stability index: 3.27 ± 0.043

## YVRTEETDGKHGKRRSQ [YMR129W/POM152]
doa10∆
  protein stability index: 1.46 ± 0.041
pdr5∆
  protein stability index: 1.85 ± 0.063
san1∆
  protein stability index: 1.57 ± 0.11
ubr1∆
  protein stability index: 2 ± 0.053

## QKESDAKNETNSESDSK [ITC1]
doa10∆
  protein stability index: 2.94 ± 0.044
pdr5∆
  protein stability index: 3.03 ± 0.046
san1∆
  protein stability index: 3.02 ± 0.045
ubr1∆
  protein stability index: 2.85 ± 0.043

## AMDLAQMLIQGVWDVDN [BRR2]
doa10∆
  protein stability index: 2.85 ± 0.064
pdr5∆
  protein stability index: 2.78 ± 0.067
san1∆
  protein stability index: 2.18 ± 0.058
ubr1∆
  protein stability index: 2.12 ± 0.052

## NRDRSFQLLEPLSTYNK [PGD1]
doa10∆
  protein stability index: 3 ± 0.051
pdr5∆
  protein stability index: 2.95 ± 0.062
san1∆
  protein stability index: 2.93 ± 0.053
ubr1∆
  protein stability index: 2.72 ± 0.045

## AIATTVIAHLTVEALDF [RET1]
doa10∆
  protein stability index: 2.54 ± 0.12
pdr5∆
  protein stability index: 2.32 ± 0.083
san1∆
  protein stability index: 2.71 ± 0.076
ubr1∆
  protein stability index: 2.37 ± 0.053

## IFNDILAHVDQIVDIRN [YJL039C/NUP192]
doa10∆
  protein stability index: 2.83 ± 0.1
pdr5∆
  protein stability index: 2.64 ± 0.18
san1∆
  protein stability index: 2.97 ± 0.082
ubr1∆
  protein stability index: 2.9 ± 0.076

## FAQPVADIENSTSGDPS [SSN2]
pdr5∆
  protein stability index: 3.14 ± 0.23
san1∆
  protein stability index: 2.9 ± 0.16
ubr1∆
  protein stability index: 2.75 ± 0.24

## HWSVSFQAHEITSFLLS [NAS6]
doa10∆
  protein stability index: 2.28 ± 0.056
pdr5∆
  protein stability index: 1.92 ± 0.051
san1∆
  protein stability index: 1.76 ± 0.08
ubr1∆
  protein stability index: 2.02 ± 0.04

## RKSVFAPLNFNPIIENN [SSN2]
doa10∆
  protein stability index: 2.65 ± 0.058
pdr5∆
  protein stability index: 2.98 ± 0.073
san1∆
  protein stability index: 2.75 ± 0.06
ubr1∆
  protein stability index: 2.71 ± 0.069

## NKKRPSSKKVFSSNLSY [YOR098C/NUP1]
doa10∆
  protein stability index: 2.48 ± 0.073
pdr5∆
  protein stability index: 2.4 ± 0.063
san1∆
  protein stability index: 2.08 ± 0.1
ubr1∆
  protein stability index: 2.56 ± 0.05

## SCRNPEHTDVIDELIDT [YIL149C/MLP2]
doa10∆
  protein stability index: 2.68 ± 0.054
pdr5∆
  protein stability index: 2.76 ± 0.061
san1∆
  protein stability index: 2.58 ± 0.047
ubr1∆
  protein stability index: 2.58 ± 0.035

## KKASDLVDTPSNNTAAT [NUT1]
doa10∆
  protein stability index: 3.28 ± 0.1
pdr5∆
  protein stability index: 3.17 ± 0.074
san1∆
  protein stability index: 3.11 ± 0.046
ubr1∆
  protein stability index: 3.21 ± 0.06

## PLLSKKERLVRDKKEKK [SMB1]
doa10∆
  protein stability index: 3.37 ± 0.24
pdr5∆
  protein stability index: 3 ± 0.11
san1∆
  protein stability index: 2.72 ± 0.18
ubr1∆
  protein stability index: 3.15 ± 0.17

## GWLGALTMANLPSWSLG [ARP7]
doa10∆
  protein stability index: 3.07 ± 0.078
pdr5∆
  protein stability index: 3.08 ± 0.062
san1∆
  protein stability index: 2.68 ± 0.083
ubr1∆
  protein stability index: 2.92 ± 0.057

## VTFSFFNPQDTEENIKG [RRP45]
doa10∆
  protein stability index: 2.15 ± 0.081
pdr5∆
  protein stability index: 2.55 ± 0.08
san1∆
  protein stability index: 3.08 ± 0.08
ubr1∆
  protein stability index: 3.19 ± 0.076

## VEDFLERRLQTQVYKLG [RPS9A]
doa10∆
  protein stability index: 1.28 ± 0.071
pdr5∆
  protein stability index: 1.45 ± 0.095
san1∆
  protein stability index: 1.97 ± 0.27
ubr1∆
  protein stability index: 1.93 ± 0.18

## QQRKQKKNRDKKIFGTG [RPS24A]
doa10∆
  protein stability index: 3.17 ± 0.093
pdr5∆
  protein stability index: 3.14 ± 0.055
san1∆
  protein stability index: 3.25 ± 0.035
ubr1∆
  protein stability index: 3.06 ± 0.067

## AVNLLNCPHSDSTQLLE [SSN2]
doa10∆
  protein stability index: 2.67 ± 0.15
pdr5∆
  protein stability index: 3.3 ± 0.092
san1∆
  protein stability index: 3.51 ± 0.15
ubr1∆
  protein stability index: 2.9 ± 0.072

## RRVKQLDDITDSNTTEI [SIR4]
doa10∆
  protein stability index: 3.27 ± 0.086
pdr5∆
  protein stability index: 3.14 ± 0.072
san1∆
  protein stability index: 2.83 ± 0.069
ubr1∆
  protein stability index: 3 ± 0.065

## KKRAPRAVKEIKKFAKL [RPL31A]
pdr5∆
  protein stability index: 3.15 ± 0.21
san1∆
  protein stability index: 2.86 ± 0.16

## LEERFDPKSPTKRSIAI [YMR129W/POM152]
doa10∆
  protein stability index: 2.94 ± 0.055
pdr5∆
  protein stability index: 3.14 ± 0.055
san1∆
  protein stability index: 2.9 ± 0.037
ubr1∆
  protein stability index: 3.02 ± 0.034

## GAKGSTLIVVPFNQGSK [FAS2]
doa10∆
  protein stability index: 2.1 ± 0.095
pdr5∆
  protein stability index: 2.48 ± 0.088
san1∆
  protein stability index: 2.18 ± 0.14
ubr1∆
  protein stability index: 1.85 ± 0.073

## MISEVPSVAAEYVYFFN [RPC40]
doa10∆
  protein stability index: 1.53 ± 0.11
pdr5∆
  protein stability index: 1.13 ± 0.091
san1∆
  protein stability index: 1.23 ± 0.11
ubr1∆
  protein stability index: 1.07 ± 0.079

## QNSDASTLEPTLRKELE [YIL149C/MLP2]
doa10∆
  protein stability index: 2.59 ± 0.09
pdr5∆
  protein stability index: 1.68 ± 0.091
san1∆
  protein stability index: 2.55 ± 0.069
ubr1∆
  protein stability index: 3.12 ± 0.077

## WKAPSSIVLDSEHFDVN [DIS3]
doa10∆
  protein stability index: 3.14 ± 0.062
pdr5∆
  protein stability index: 3.47 ± 0.064
san1∆
  protein stability index: 3.28 ± 0.056
ubr1∆
  protein stability index: 3.33 ± 0.052

## NATLTPNDSNDEKVTIL [SWI1]
doa10∆
  protein stability index: 3.02 ± 0.059
pdr5∆
  protein stability index: 3.22 ± 0.061
san1∆
  protein stability index: 3.1 ± 0.066
ubr1∆
  protein stability index: 3.11 ± 0.04

## DARSSRNFSLAIIDKNT [PRE4]
doa10∆
  protein stability index: 3.02 ± 0.075
pdr5∆
  protein stability index: 2.78 ± 0.083
san1∆
  protein stability index: 2.98 ± 0.05
ubr1∆
  protein stability index: 2.89 ± 0.056

## IDVLLEQTTGGNNKDLK [RPB4]
pdr5∆
  protein stability index: 3.68 ± 0.27
ubr1∆
  protein stability index: 3.5 ± 0.079

## KVMNNSFKLCTLLIAIR [YML103C/NUP188]
doa10∆
  protein stability index: 1.47 ± 0.063
pdr5∆
  protein stability index: 1.69 ± 0.087
san1∆
  protein stability index: 1.96 ± 0.15
ubr1∆
  protein stability index: 1.63 ± 0.09

## NVVVKWQGKPVFIRHRT [RIP1]
doa10∆
  protein stability index: 3.35 ± 0.25
san1∆
  protein stability index: 3.41 ± 0.07
ubr1∆
  protein stability index: 2.88 ± 0.27

## VVVDTVECAQHCIDYLR [SMC4]
doa10∆
  protein stability index: 3.06 ± 0.11
pdr5∆
  protein stability index: 2.79 ± 0.22
san1∆
  protein stability index: 3.26 ± 0.074
ubr1∆
  protein stability index: 3.01 ± 0.1

## DQKFGVPVRSFKGHSHI [ASC1]
doa10∆
  protein stability index: 3.11 ± 0.092
pdr5∆
  protein stability index: 3.19 ± 0.064
san1∆
  protein stability index: 2.99 ± 0.07
ubr1∆
  protein stability index: 3.25 ± 0.058

## HLLVKQGDGLLTKLQKY [RPN7]
doa10∆
  protein stability index: 2.97 ± 0.13
pdr5∆
  protein stability index: 2.44 ± 0.1
san1∆
  protein stability index: 3.19 ± 0.12
ubr1∆
  protein stability index: 3 ± 0.16

## IELDQVLNMLYWVPDWD [RPO21]
doa10∆
  protein stability index: 2.84 ± 0.095
pdr5∆
  protein stability index: 2.32 ± 0.068
san1∆
  protein stability index: 2.17 ± 0.11
ubr1∆
  protein stability index: 2.51 ± 0.057

## IKNVIVSNRVAAPARAG [RPP0]
doa10∆
  protein stability index: 1.82 ± 0.13
pdr5∆
  protein stability index: 2.44 ± 0.11
san1∆
  protein stability index: 3 ± 0.14
ubr1∆
  protein stability index: 1.96 ± 0.22
